# Measurements published in US6534640B1, “Methods and compositions to alter the cell surface expression of phosphatidylserine and other clot-promoting plasma membrane phospholipids” (Blood Center Research Foundation, priority 1996, dated 2003).
# “Also recorded” adds a separate entry of the source.
# T1: PL scramblase (Homo sapiens, UniProt O15162)
# T1 sequence (O15162 1-318): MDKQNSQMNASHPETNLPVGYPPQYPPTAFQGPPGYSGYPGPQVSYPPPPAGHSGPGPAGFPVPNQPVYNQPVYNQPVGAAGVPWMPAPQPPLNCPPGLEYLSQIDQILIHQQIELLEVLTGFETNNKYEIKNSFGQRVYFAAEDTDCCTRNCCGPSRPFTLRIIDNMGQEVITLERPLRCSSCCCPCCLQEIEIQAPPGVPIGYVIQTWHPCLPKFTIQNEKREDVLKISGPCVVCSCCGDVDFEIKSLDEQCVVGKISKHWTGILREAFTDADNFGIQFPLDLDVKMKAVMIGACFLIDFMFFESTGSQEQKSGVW
# T2: human erythrocyte PL scramblase (Homo sapiens, UniProt O15162)
# T2 construct: PL scramblase purified from human erythrocytes; from tissue; host or cells: human erythrocyte ghost membranes
# T2 sequence (O15162 1-318): T1 sequence (O15162 1-318)
# B1: recombinant PL scramblase: Recombinant human PL scramblase (SEQ ID NO:2) expressed in E. coli as MBP fusion, liberated by factor Xa (protein, listed as Homo sapiens)
# chain: T1 sequence (O15162 1-318)
# How the values were obtained:
# PL scramblase [1] = molecular target: T1, PL scramblase; conditions: cited from earlier work
# [2] = molecular target: T2, human erythrocyte PL scramblase; experiment: Treatment with hydroxylamine, then reconstitution into proteoliposomes and PL scramblase activity assay (NBD-PC); type: biochemical; conditions: 1 M hydroxylamine, 1 hour, room temperature, neutral pH; assay in 2 mM Ca2+, 3 hours
# Description: Treatment with Hydroxylamine. PL scramblase was incubated 1 hour room temperature in 1 M hydroxylamine, 25 mM octylglucoside, 1 M Tris-HCl at pH 7.4. Match control samples of the protein were identically incubated under these conditions, omitting hydroxylamine. After incubation, samples were dialyzed and reconstituted into PL proteoliposomes for assay of PL scramblase activity.
# Membrane reconstitution and assay. PL scramblase was reconstituted into proteliposomes and activity determined as previously described(F. Bassé, et al., supra, 1996; J. G. Stout, et al, supra, 1997).
# FIG. 11 illustrates inactivation of PL scramblase by hydroxylamine. Purified human erythrocyte PL scramblase was incubated 1 hour, room temperature, in the presence of 50 mM octylglucoside, 1M TrisHCl, and either 0 (control) or 1M (hydroxylamine) hydroxylamine at pH 7.2. Untreated refers to sample maintained in low ionic strength sample buffer at 4° C. . Each sample was then dialyzed and reconstituted into proteoliposomes for assay of PL scramblase activity using NBD-PC as detailed in Bassé, et al., supra, 1996 with modifications of Stout, et al., supra, 1997. Ordinate indicates percent of total NBD-PC flipped during 3 hours. Incubation was in 2 mM Ca^2+, with correction for background measured in 0.1 mM EGTA. The error bars denote mean±SD, n=7. Combined data of three independent experiments performed on different days.
# Raji cells = experiment: Prothrombinase assay of transfected Raji cells; type: cell-based, human; conditions: transformed Raji cells, 2 μM A23187, vs clones expressing GFP alone
# Description: Prothrombinase Assay. Prothrombinase activity of Raji cells was determined by modification of methods previously described for platelets, using the chromogenic thrombin substrate S2238 (P. J. Sims, et al., supra, 1988). Briefly, 1×10^5 Raji cells (transfected with either pEGFP-C2 or pEGFP-C2-PL scramblase) were suspended in 200 μl HBSS containing 1% BSA in the presence of 2 nM FVa, 1.4 μM prothrombin 2.5 mM CaCl2, and 4 μM dansylarginine-N-(3-ethyl-1,5-pentanediyl)amide (to inhibit feed-back activation by thrombin), and incubated at 37° C. Ca^2+-ionophore A23187 (2 μM), or DMSO (as solvent control) was added, and prothrombin conversion was initiated by addition of 2 nM Fxa. Thrombin generation was stopped after 2 minutes by dilution into 10 mM EGTA and samples were stored on ice. Aliquots were transferred to a 96-well plate, and thrombin generated was assayed in TBS containing 1% BSA in presence of 150 μM S2238 by monitoring time-dependent changes in absorbance at 405 nm using a Thermomax plate reader (Molecular Devices, Sunnyvale, Calif.). Thrombin activity was calculated using purified thrombin as standard.
# PL scramblase [3] = molecular target: T1, PL scramblase; experiment: PL scramblase activity: Ca2+-dependent transbilayer movement of NBD-PC in reconstituted PC/PS proteoliposomes; type: biochemical; design: PCR was performed on a full-length clone using the primers; made in house; host or cells: E. coli TB1 (pMAL-C2)
# Description: Reconstitution of PL scramblase or scramblase fusion protein into proteoliposomes. Reconstitution and functional activity were performed essentially as previously described (F. Bassé, et al., J. Biol. Chem. 271:17205-17210, 1996; J. G. Stout, et al., J. Clin. Invest. 99:2232-2238, 1997). Briefly, a mixture of PC and PS (9:1 molar ratio) was dried under a stream of nitrogen and resuspended in 100 mM Tris, 100 mM KCl, 0.1 mM EGTA, pH 7.4 (Tris buffer). Protein samples to be reconstituted were added to the liposomes at a final lipid concentration of 4 mg/ml in the presence of 60 mM OG, and dialyzed overnight at 4° C. against 200 vol of Tris buffer containing 1 g/L Bio-Beads SM-2. To liberate PL scramblase from MBP, the proteoliposomes were incubated 3 h at room temperature in the presence of 1/40 (w/w) factor Xa. The digestion was terminated by addition of 100 μM Glu-Gly-Arg chloromethyl ketone. Completeness of the digest was monitored by SDS-PAGE. […]
# PL Scramblase activity. Scramblase activity was measured as previously described (F. Bassé, et al., supra, 1996; J. G. Stout, et al., supra, 1997 and in U.S. Ser. No. 08/790,186). […] Proteoliposomes were diluted 25-fold in Tris buffer containing 4 mM EGTA and transferred to a stirred fluorescence cuvet at 23° C. Initial fluorescence was recorded (SLM Aminco 8000 spectrof luorimeter; excitation at 470 nm, emission at 532 nm), 20 mM dithionite was added, and the fluorescence continuously monitored for a total of 120 seconds. The difference in non-quenchable fluorescence observed in presence vs. absence of CaCl2 Was attributed to Ca^2+-induced change in NBD-PC located in the outer leaflet (F. Bassé, et al., supra, 1996; J. G. Stout, et al., supra, 1997; J. C. McIntyre and R.G. Sleight, Biochemistry 30:11819-11827, 1991). Ionized [Ca^2+] was calculated using FreeCal version 4.0 software (generously provided by Dr. Lawrence F. Brass, University of Pennsylvania, Philadelphia, Pa.). […]
molecule,measurement,setting,value
O[C@H](CS)[C@H](O)CS (racemic) [dithiothreitol],PL scramblase activity after incubation in reducing agents,PL scramblase [1],retention of normal PL scramblase activity
NO [hydroxylamine],PL scramblase activity after incubation with hydroxylamine,[2],near complete loss; also recorded: nearly complete inactivation
B1,cell capacity to catalyze the prothrombinase reaction upon entry of calcium into the cytosol,Raji cells,increase
same,PL scramblase activity,"PL scramblase [3]; 2 mM CaCl2, mean±SD of three measurements",11.76±0.44 % of total NBD-PC flipped
same,Ca2+-dependent PL scramblase activity (transbilayer movement of NBD-PC) in liposomes,"PL scramblase [3]; PC/PS liposomes, absence or presence of 2 mM CaCl2",PL scramblase activity was observed
same,specific PL mobilizing activity relative to the endogenous protein purified from the erythrocyte membrane,"PL scramblase [3]; expressed and purified from E. coli, reconstituted in proteoliposomes",approximately 50%
